Results: paper PMC3195669 (Biologics : Targets & Therapy, 2011)

Target: the molecule itself
Assay: SDS-PAGE without heat denaturation or reducing agent

B1: recombinant mouse full-length adiponectin subfractions, unlabeled (natural protein, UniProt Q60994 18-247, looked up)
chain: EDDVTTTEELAPALVPPPKGTCAGWMAGIPGHPGHNGTPGRDGRDGTPGEKGEKGDAGLLGPKGETGDVGMTGAEGPRGFPGTPGRKGEPGEAAYVYRSAFSVGLETRVTVPNVPIRFTKIFYNQQNHYDGSTGKFYCNIPGLYYFSYHITVYMKDVKVSLFKKDKAVLFTYDQYQEKNVDQASGSVLLHLEVGDQVWLQVYGDGDHNGLYADNVNDSTFTGFLLYHDTN
For B1, the “stoichiometry N” value was 6.
